Consider one molecule from publication doi:10.1101/767376, “Strategies to improve scFvs as crystallization chaperones suggested by analysis of a complex with the human PHD-bromodomain SP140” (bioRxiv, 2019).

The target in this assay is T1, SP140 PHD-bromodomain (construct SP140A-c055) (Homo sapiens, UniProt Q13342).
T1 construct: SP140, human, nuclear leukocyte-specific protein, amino acids 688-862 (PHD and bromodomain); Biotinylated recombinant SP140 was the target in the phage selection; Details are in supplementary methods S1; source: recombinant, purified
As to the kind of experiment: SPR; format and conditions in Supplementary Method S3 and Figure S1 (not shown). (In general: SPR reads the build-up and loss of mass on a sensor chip optically.)

By Kd is commonly meant the equilibrium constant for the complex coming apart. A low value points to tighter binding.

T1 sequence (Q13342 688-862): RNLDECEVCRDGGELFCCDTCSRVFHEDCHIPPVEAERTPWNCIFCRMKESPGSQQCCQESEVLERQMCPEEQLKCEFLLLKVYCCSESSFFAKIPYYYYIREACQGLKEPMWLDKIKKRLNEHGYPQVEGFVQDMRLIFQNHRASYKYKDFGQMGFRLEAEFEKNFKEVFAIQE

B1: G-SP140-8 scFv (construct YYSP140A-c009) (scFv, V domains shown)
VH: EVQLLESGGGLVQPGGSLRLSCAASGFTFYGSGMGWVRQAPGKGLEWVSSIYSGSGSTYYADSVKGRFTISRDNSKNTLYLQMNSLRAEDTAVYYCARTSIYYYYMDYWGQGTLVTVSS
VL: DIQMTQSPSSLSASVGDRVTITCRASQSISSYLNWYQQKPGKAPKLLIYAASSLQSGVPSRFSGSGSGTDFTLTISSLQPEDFATYYCQQSSSLFTFGQGTKLEIK
notes: scFv (VH and VL joined by a linker) selected by phage display from the human synthetic library SciLifeLib; see Supplementary Method S3; not shown: MBP, N-terminal, cleaved; His6, N-terminal, cleaved
B1 returned a Kd of approximately 6 nM.
